Results reported in paper PMC3526665 (Protein and peptide letters, 2010).

Target: the molecule itself
Assay: SEC

B1: cytoplasmic domain of QseC (QseC-CD) (domain or fragment, E. coli)
chain: RERRFTSDAAHELRSPLTALKVQTEVAQLSDDDPQARKKALLQLHSGIDRATRLVDQLLTLSRLDSLDNLQDVAEIPLEDLLQSSVMDIYHTAQQAKIDVRLTLNAHSIKRTGQPLLLSLLVRNLLDNAVRYSPQGSVVDVTLNADNFIVRDNGPGVTPEALARIGERFYRPPGQTATGSGLGLSIVQRIAKLHGMNVEFGNAEQGGFEAKVSWLE
stoichiometry N: 2
